The labels stand for the following.
B1: Cys(N)-N-104 immobilized on SulfoLink Coupling resin (peptide)
peptide: AQKLLKKFSLLKPWA

For experiment [1], the target named is thrombin (F2) C-terminal peptide GKY20 (human). In words: far-Western, overlay or dot blot.
For experiment [2], the target named is T1, recombinant PotH (E. coli) with C-terminal 10-His tag (E. coli, UniProt P31135 1-317).
T1 sequence (looked up): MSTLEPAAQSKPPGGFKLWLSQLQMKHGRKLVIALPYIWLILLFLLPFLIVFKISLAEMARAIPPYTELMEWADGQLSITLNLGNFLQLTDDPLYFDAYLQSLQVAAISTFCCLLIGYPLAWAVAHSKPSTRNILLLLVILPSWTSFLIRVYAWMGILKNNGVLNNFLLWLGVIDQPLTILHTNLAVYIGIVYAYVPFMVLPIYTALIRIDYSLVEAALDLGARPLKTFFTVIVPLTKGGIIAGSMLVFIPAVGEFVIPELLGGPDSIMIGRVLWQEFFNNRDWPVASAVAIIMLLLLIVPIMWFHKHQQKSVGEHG
Description: pull-down.

Experiment [3] addresses thrombin (F2) C-terminal peptide GKY20 (human). In words: far-Western, overlay or dot blot. The source holds these as a separate data set.
The target in experiment [4] is B1. In words: pull-down.

Like-named read-outs stand apart in the source and are kept apart here. Ends that are not written are not given here.

Regarding Ac-AQKLLKKFSLLKPWA [lacritin peptide N-104], the binding result in experiment [1] is recorded as “binds”.
Same read-out and setting: the result for AQKLLKKFSLLSPWA (peptide, UniProt Q9GZZ8 124-138, looked up) [N-104:K116S] reads “binds”.
Still for that read-out and setting: with AQKLLKSFSLLKPWA (peptide, UniProt Q9GZZ8 124-138, looked up) [N-104:K111S] the entry was “binds”; with AQKLLKKFSSLKPWA (peptide, UniProt Q9GZZ8 124-138, looked up) [N-104:L114S], “binds”.
Consider AQKSLKKFSLLKPWA (peptide, UniProt Q9GZZ8 124-138, looked up) [N-104:L108S], for which the binding result in experiment [1] is “binds”.
On the same count and under the same terms, the result for AQKLLKKFSLLKPSA (peptide, UniProt Q9GZZ8 124-138, looked up) [N-104:W118S] reads “binds”; that for AQKLLKKFSLSKPWA (peptide, UniProt Q9GZZ8 124-138, looked up) [N-104:L115S], “binds”.
On the same count and under the same terms, the result for AQSLLKKFSLLKPWA (peptide, UniProt Q9GZZ8 124-138, looked up) [N-104:K107S] reads “binds”; that for AQKLLSKFSLLKPWA (peptide, UniProt Q9GZZ8 124-138, looked up) [N-104:K110S], “binds”.
The same measure, in the same setting: the result for AQKLSKKFSLLKPWA (peptide, UniProt Q9GZZ8 124-138, looked up) [N-104:L109S] reads “binds”; that for AQKLLKKSSLLKPWA (peptide, UniProt Q9GZZ8 124-138, looked up) [N-104:F112S], “binds”.
Regarding B1, in experiment [2], the binding result is recorded as “binds”.
In the case of AQKSSKKSSSSKPSA (peptide, UniProt Q9GZZ8 124-138, looked up) [N-104 L108S/L109S/F112S/L114S/L115S/W118S], in experiment [3], the binding result is given as “binds”.
As to Ac-WMGILKNNGVLNNFLLWLGVIDQPLTILHTN-NH2 [PotH outer loop 2 synthetic peptide], the binding result in experiment [4] is given as “binds”.

These data come from article PMC10925246 (bioRxiv, 2024).
